We go through 94 variants from the supplement of paper PMC10567573.

B1: RAD54B (parent)
chain: YVQEKRDGLKRRQQLEEELLRAKI
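Further: lentivirally expressed fusions sorted by FACS into six bins by GFP to DsRed ratio, PSI derived from sequencing read proportions per bin multiplied by bin number.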

The variants in the data set derive from B1. In words: protein stability index of a GFP-peptide fusion (GPS, HEK-293T) (PSI 1-6); higher = more stable. Conditions: c terminus: a fixed tail appended.
For YVQEKRDGLKRRQQLEEELLRAII [K23I], the protein stability index came to 1.73.

On to YVQEKRDGLKRRQQLEEELLRAGI [K23G], for which the protein stability index is 1.86. For YVQEKRDGLKRRQQLEEELLRAPI [K23P], the protein stability index is 2.63. The result for YVQEKRDGLKRRQQLEEELLRASI [K23S] reads 2.36; that for YVQEKRDGLKRRQQLEEELLRAVI [K23V], 2.25; that for YVQEKRDGLKRRQQLEEELLRAEI [K23E], 1.71. YVQEKRDGLKRRQQLEEELLRAWI [K23W]: the protein stability index stood at 1.59. With YVQEKRDGLKRRQQLEEELLRARI [K23R], the protein stability index came to 2.45.

For YVQEKRDGLKRRQQLEEELLRAMI [K23M], the protein stability index was 2.62. On to YVQEKRDGLKRRQQLEEELLRAAI [K23A], for which the protein stability index came out at 1.78.

Take YVQEKRDGLKRRQQLEEELLRADI [K23D]: the protein stability index was 2.55. Take YVQEKRDGLKRRQQLEEELLRATI [K23T]: the protein stability index stood at 2.08. For YVQEKRDGLKRRQQLEEELLRAFI [K23F], the protein stability index came to 1.81. Turning to YVQEKRDGLKRRQQLEEELLRAHI [K23H], the protein stability index was found to be 2.95.

With YVQEKRDGLKRRQQLEEELLRACI [K23C], the protein stability index was found to be 1.79.

In the case of YVQEKRDGLKRRQQLEEELLRANI [K23N], the protein stability index was found to be 2.28.

YVQEKRDGLKRRQQLEEELLRAYI [K23Y]: the protein stability index stood at 1.49. As for YVQEKRDGLKRRQQLEEELLRALI [K23L], the protein stability index was 3.08. For YVQEKRDGLKRRQQLEEELLRAQI [K23Q], the protein stability index came out at 1.59. The result for YVQEKRDGLKRRQQLEEELLRAKM [I24M] reads 2.05. For the variant YVQEKRDGLKRRQQLEEELLRAKR [I24R], the protein stability index was determined as 1.68.

With YVQEKRDGLKRRQQLEEELLRAKH [I24H], the protein stability index is 2.38. With YVQEKRDGLKRRQQLEEELLRAKQ [I24Q], the protein stability index was 2.22. For YVQEKRDGLKRRQQLEEELLRAKE [I24E], the protein stability index stood at 2.17. Turning to YVQEKRDGLKRRQQLEEELLRAKG [I24G], the protein stability index was determined as 2.08.

For YVQEKRDGLKRRQQLEEELLRAKC [I24C], the protein stability index amounted to 1.75. In the case of YVQEKRDGLKRRQQLEEELLRAKK [I24K], the protein stability index turned out to be 1.87. Turning to YVQEKRDGLKRRQQLEEELLRAKP [I24P], the protein stability index was determined as 2.45. Regarding YVQEKRDGLKRRQQLEEELLRAKY [I24Y], the protein stability index is 1.74. Under YVQEKRDGLKRRQQLEEELLRAKF [I24F] stands 1.98. Take YVQEKRDGLKRRQQLEEELLRAKL [I24L]: the protein stability index was found to be 1.65. Under YVQEKRDGLKRRQQLEEELLRAKV [I24V] stands 1.92. With YVQEKRDGLKRRQQLEEELLRAKW [I24W], the protein stability index amounted to 2.28.

As to YVQEKRDGLKRRQQLEEELLRAKN [I24N], the protein stability index was determined as 2.18. As to YVQEKRDGLKRRQQLEEELLRAKT [I24T], the protein stability index was determined as 1.58.

Turning to YVQEKRDGLKRRQQLEEELLRAKD [I24D], the protein stability index was 2.73. With YVQEKRDGLKRRQQLEEELLRAKA [I24A], the protein stability index was determined as 1.98. Take YVQEKRDGLKRRQQLEEELLRAKS [I24S]: the protein stability index was found to be 1.93. In the case of YVQEKRDGLKRRQQLEEEILRAKI [L19I], the protein stability index is 1.88. Consider YVQEKRDGLKRRQQLEEEWLRAKI [L19W], for which the protein stability index came to 2.17. Turning to YVQEKRDGLKRRQQLEEEYLRAKI [L19Y], the protein stability index stood at 1.55. On to YVQEKRDGLKRRQQLEEEQLRAKI [L19Q], for which the protein stability index came to 1.78. Regarding YVQEKRDGLKRRQQLEEETLRAKI [L19T], the protein stability index was 1.75. As to YVQEKRDGLKRRQQLEEERLRAKI [L19R], the protein stability index stood at 2.38.

On to YVQEKRDGLKRRQQLEEEVLRAKI [L19V], for which the protein stability index turned out to be 1.7. YVQEKRDGLKRRQQLEEENLRAKI [L19N]: the protein stability index stood at 2.14.

YVQEKRDGLKRRQQLEEEFLRAKI [L19F]: the protein stability index was determined as 2.37.

Consider YVQEKRDGLKRRQQLEEEDLRAKI [L19D], for which the protein stability index was 2.3. The result for YVQEKRDGLKRRQQLEEEALRAKI [L19A] reads 1.96.

Consider YVQEKRDGLKRRQQLEEEELRAKI [L19E], for which the protein stability index worked out at 1.95.

As for YVQEKRDGLKRRQQLEEEHLRAKI [L19H], the protein stability index was 2.16.

With YVQEKRDGLKRRQQLEEEPLRAKI [L19P], the protein stability index was found to be 2.34. For the variant YVQEKRDGLKRRQQLEEEKLRAKI [L19K], the protein stability index came out at 2.42. The result for YVQEKRDGLKRRQQLEEEGLRAKI [L19G] reads 2.54; that for YVQEKRDGLKRRQQLEEECLRAKI [L19C], 1.95. With YVQEKRDGLKRRQQLEEESLRAKI [L19S], the protein stability index stood at 2.45. Consider YVQEKRDGLKRRQQLEEEMLRAKI [L19M], for which the protein stability index was found to be 2.06. Under YVQEKRDGLKRRQQLEEELHRAKI [L20H] stands 1.81; under YVQEKRDGLKRRQQLEEELDRAKI [L20D], 1.97. Consider YVQEKRDGLKRRQQLEEELERAKI [L20E], for which the protein stability index is 2.25. Turning to YVQEKRDGLKRRQQLEEELCRAKI [L20C], the protein stability index was determined as 1.59. Turning to YVQEKRDGLKRRQQLEEELSRAKI [L20S], the protein stability index amounted to 1.67. For YVQEKRDGLKRRQQLEEELARAKI [L20A], the protein stability index was determined as 1.95. As for YVQEKRDGLKRRQQLEEELQRAKI [L20Q], the protein stability index is 1.75. Turning to YVQEKRDGLKRRQQLEEELFRAKI [L20F], the protein stability index was 1.3.

On to YVQEKRDGLKRRQQLEEELKRAKI [L20K], for which the protein stability index was found to be 2.19. On to YVQEKRDGLKRRQQLEEELMRAKI [L20M], for which the protein stability index is 1.78.

On to YVQEKRDGLKRRQQLEEELYRAKI [L20Y], for which the protein stability index came out at 2.26. On to YVQEKRDGLKRRQQLEEELWRAKI [L20W], for which the protein stability index came to 2.08. For YVQEKRDGLKRRQQLEEELRRAKI [L20R], the protein stability index was found to be 2.18. Under YVQEKRDGLKRRQQLEEELGRAKI [L20G] stands 2.08. The result for YVQEKRDGLKRRQQLEEELPRAKI [L20P] reads 1.78; that for YVQEKRDGLKRRQQLEEELNRAKI [L20N], 1.94. For the variant YVQEKRDGLKRRQQLEEELVRAKI [L20V], the protein stability index amounted to 1.49. For YVQEKRDGLKRRQQLEEELIRAKI [L20I], the protein stability index was determined as 1.76. Under YVQEKRDGLKRRQQLEEELTRAKI [L20T] stands 1.82; under YVQEKRDGLKRRQQLEEYLLRAKI [E18Y], 2.22; under YVQEKRDGLKRRQQLEEILLRAKI [E18I], 1.67. In the case of YVQEKRDGLKRRQQLEEMLLRAKI [E18M], the protein stability index came out at 2.01. As to YVQEKRDGLKRRQQLEEVLLRAKI [E18V], the protein stability index came out at 1.94.

For the variant YVQEKRDGLKRRQQLEENLLRAKI [E18N], the protein stability index is 1.96. Regarding YVQEKRDGLKRRQQLEEPLLRAKI [E18P], the protein stability index is 2.

For the variant YVQEKRDGLKRRQQLEETLLRAKI [E18T], the protein stability index worked out at 1.48.

YVQEKRDGLKRRQQLEELLLRAKI [E18L]: the protein stability index was found to be 1.55. The result for YVQEKRDGLKRRQQLEEQLLRAKI [E18Q] reads 2.03; that for YVQEKRDGLKRRQQLEERLLRAKI [E18R], 1.88; that for YVQEKRDGLKRRQQLEEWLLRAKI [E18W], 2.42.

Consider YVQEKRDGLKRRQQLEESLLRAKI [E18S], for which the protein stability index came to 2.13. For the variant YVQEKRDGLKRRQQLEEKLLRAKI [E18K], the protein stability index came out at 1.95.

As for YVQEKRDGLKRRQQLEEELLRPKI [A22P], the protein stability index amounted to 1.68. Take YVQEKRDGLKRRQQLEEELLRWKI [A22W]: the protein stability index amounted to 2. The result for YVQEKRDGLKRRQQLEEELLREKI [A22E] reads 2.92; that for YVQEKRDGLKRRQQLEEELLRQKI [A22Q], 2. Turning to YVQEKRDGLKRRQQLEEELLRDKI [A22D], the protein stability index was 2.29.
